Experimental data taken from IntAct's records for PubMed 21633354.

B1: Condensin complex subunit 2 (Schizosaccharomyces pombe (strain ATCC 38366 / 972)), Q9Y7R3 (parent)
chain: MKRASLGGHAPVSLPSLNDDALEKKRAKENSRKQRELRRSSALHSITPRRESLNNSSPFNSSHQVPVLSNFEEWIKLATDNKINSTNTWNFALIDYFHDMSLLRDGEDINFQKASCTLDGCVKIYTSRIDSVATETGKLLSGLANDSKVLQQTEEGEDAENDDEDLQKKKERKRAQRSVKTLVKDFESIRAKKFELECSFDPLFKKMCADFDEDGAKGLLMNHLCVDQHGRIVFDSSDTVIKDLENKDVEAESQEAVVAAPIESHDTEMTNVHDNISRETLNGIYKCYFTDIDQLTICPSLQGFEFDSKGNLDVSLLKSLSDEVNMITTTSLVDNTMEKTDADAASLSSDSDGEEGHIVHALEEMAYDEENPYVDVVPKAMDESENPDFGVDTEVNMADGSTMNENYSIISTAAANGVYEYFDKSMKKNWAGPEHWRIQALRKNINNASTVFNSSNTAESSDNVSRSLSSTERKKRRELDNAIDFLQEVDVEALFTPATSSLKLPKSHWKRHNRCLLPDDYQYDSKRLLQLFLKPKMSVLPNADGEGQLQLNKALDDENDLDGIQPHGFDSDGSDNVDEGIPPYGFGDSDSPKQTPLLTPPSSSGFGDNLLLTARLAKPDMLNYAKRAKKVDVRVLKEKLWKCLDLENTIKENSINSHIEGSEMESEETNMPVKSFFSTVNQLEETYEKKELKDISTSFAFICVLHLANEHNLELTSNEDFSDVFIRPGPNLTTLEALENDV

Variants of: B1
Conditions: with h2a2_schpo hta2, P04910

Variant	effect of a mutation on the interaction
S5A;S41A;S52A	decreasing interaction

Variants of: B1
Conditions: with h2az_schpo pht1, P48003
Chain of h2az_schpo pht1, P48003 (P48003 whole entry): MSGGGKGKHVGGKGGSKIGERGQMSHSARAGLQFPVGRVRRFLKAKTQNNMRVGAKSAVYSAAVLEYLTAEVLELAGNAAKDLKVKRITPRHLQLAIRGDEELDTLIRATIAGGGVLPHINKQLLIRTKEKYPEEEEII

Variant	effect of a mutation on the interaction
S5A;S41A;S52A	decreasing interaction
